Here are results for 26 molecules from US20160159924A1 (Novo Nordisk, published 2016).

Substitutions are numbered along the chain they refer to.

In assay [1] the target is T1, recombinant human sc-uPA (human, UniProt P00749 21-431).
T1 construct: 411 amino acid single-chain zymogen expressed in HEK293; the 20-residue signal peptide is not present in the mature protein; also called human single-chain uPA; pro-uPA
Nature of the assay: SPR, mAb immobilised. As for the experimental part:
The binding affinity to recombinant human sc-uPA protein (SEQ ID NO:1) was measured by surface plasmon resonance (SPR).
(§1) The experiments were performed on a Biacore™ instrument (GE Healthcare) and analysed with the BIAcore 4000 Evaluation Software. Anti-human uPA mAb variants were directly immobilized at 150-600 RU on flow cells of a CM5 sensor chip (GE Healthcare; cat. # BR-1000-12) via amine coupling, respectively. Recombinant human sc-uPA was diluted in HBS-N (GE Healthcare Cat BR-1006-70) with 1% BSA buffer with a dilution factor 3× ranging 1000-0.13 nM. Recombinant human sc-uPA was injected for 60 s, followed by a 600 s dissociation phase. Binding curves were measured at 25° C. with a flow rate of 30 μL/min. Regeneration of the chip surface was performed with pH1.5 Glycine for 25 s at 30 μl/min. Determination of the kinetic parameters was performed by fitting with a 1:1 binding model. Binding affinities were calculated and are stated in Table 17 below.
On the technique in general: SPR reads the build-up and loss of mass on a sensor chip optically.

The target in assay [2] is T1, recombinant human sc-uPA. The assay is described as follows: SPR, mAb immobilised. The method, then:
The binding affinity to recombinant human sc-uPA protein (SEQ ID […]) was measured by surface plasmon resonance (SPR).
as §1, with “20” for “17”
This is another data set of the same source.

The target in assay [3] is T1, recombinant human sc-uPA. The assay is described as follows: SPR (Biacore), mAb immobilised, sc-uPA as analyte, 25 C. The method, then: (§2) In order to compare with murine mAb, the binding profile to recombinant human sc-uPA protein (SEQ ID NO: 1) and cynomolgus sc-uPA (SEQ ID NO: 3) was measured by surface plasmon resonance (SPR).
as §1, with “Software. […]” for “Software. Anti-human uPA mAb variants were directly immobilized at 150-600 RU on flow cells of a CM5 sensor chip (GE Healthcare; cat. # BR-1000-12) via amine coupling, respectively.”, “sc-uPA and cynomolgus sc-uPA proteins were” for “sc-uPA was”, “model. Kinetic parameters” for “model. Binding affinities”, “Table 14” for “Table 17”

Assay [4] concerns the target T2, recombinant cynomolgus sc-uPA (cynomolgus monkey, UniProt P16227 29-433 (Papio cynocephalus entry)).
T2 construct: The exact signal peptide is said not to be established; also called cyno pro-uPA; cyno pro-uPA-6xHis
The assay is described as above. The method, then: as §2
as §1, with “Software. […]” for “Software. Anti-human uPA mAb variants were directly immobilized at 150-600 RU on flow cells of a CM5 sensor chip (GE Healthcare; cat. # BR-1000-12) via amine coupling, respectively.”, “sc-uPA and cynomolgus sc-uPA proteins were” for “sc-uPA was”, “model. Kinetic parameters” for “model. Binding affinities”, “Table 14” for “Table 17”

B1: rec0266-0000-0010 (antibody, mouse IgG1, V domains shown)
VH: DVKLVESGGGLVKPGGSLKLSCVASGFTFSSYTMSWVRQTPEKRLEWVATISGGGSHIYYADSVKGRFTISRDNAKNTLYLQMSSLKSEDTAIYYCTRDGRDGSWFAYWGQGTLVTVSA
VL: DIVMTQSPATLSVTPGDRVSLSCRTSQSIGDYLHWYQQKSHESPRLLIKYVSQSISGIPSRFSGSGSGSDFTLSINSVESEDVGVYYCQNSHSFPLTFGSGTKLELKR
notes: also called mAb rec0266-0000-0010
Usually Kd stands for the free concentration of one partner at which half of the binding sites on the other are occupied at equilibrium, for simple one-to-one binding. By koff is commonly meant a measure of how fast the partners let go of each other. One may read the kon as a measure of how fast the partners come together. As for B1, the Kd in the assay with recombinant human sc-uPA [1] was found to be 0.47 nM; in the assay with recombinant human sc-uPA [2], 0.47 nM; in the assay with recombinant human sc-uPA [3], 0.944 nM; in assay [4] it was 0.0526 nM. Moreover, the koff in the assay with recombinant human sc-uPA [3] was found to be 0.00053 s⁻¹; in assay [4], 0.000104 s⁻¹. Besides, the kon with recombinant human sc-uPA [3] was found to be 561000 M⁻¹ s⁻¹; in assay [4], 1.98e+06 M⁻¹ s⁻¹.

B2: rec0266-0000-0010-VL_S91R (antibody, mouse IgG1, name in Kabat numbering, V domains shown)
VH: B1 VH
VL: B1 VL with S91R
For B2, in the assay with recombinant human sc-uPA [2], the Kd is 3.1 nM.

B3: rec0266-0000-0010-VL_N90R (antibody, mouse IgG1, name in Kabat numbering, V domains shown)
VH: B1 VH
VL: B1 VL with N90R
With B3, the Kd in the assay with recombinant human sc-uPA [2] came to 1.9 nM.

B4: rec0266-0000-0010-VL_S91D (antibody, mouse IgG1, name in Kabat numbering, V domains shown)
VH: B1 VH
VL: B1 VL with S91D
Take B4: the Kd with recombinant human sc-uPA [2] was found to be 2.1 nM.

B5: rec0266-0000-0010-VL_N90S (antibody, mouse IgG1, name in Kabat numbering, V domains shown)
VH: B1 VH
VL: B1 VL with N90S
As to B5, in the assay with recombinant human sc-uPA [2], the Kd is 0.38 nM.

B6: rec0266-0000-0010-VL_S91Y (antibody, mouse IgG1, name in Kabat numbering, V domains shown)
VH: B1 VH
VL: B1 VL with S91Y
For B6, in the assay with recombinant human sc-uPA [2], the Kd came to 3.6 nM.

B7: rec0266-0000-0010-VL_N90V (antibody, mouse IgG1, name in Kabat numbering, V domains shown)
VH: B1 VH
VL: B1 VL with N90V
For B7, the Kd with recombinant human sc-uPA [2] was 0.58 nM.

B8: rec0266-0000-0010-VL_S91F (antibody, mouse IgG1, name in Kabat numbering, V domains shown)
VH: B1 VH
VL: B1 VL with S91F
In the case of B8, the Kd with recombinant human sc-uPA [2] is 11 nM.

B9: rec0266-0000-0010-VL_N90Q (antibody, mouse IgG1, name in Kabat numbering, V domains shown)
VH: B1 VH
VL: B1 VL with N90Q
With B9, in the assay with recombinant human sc-uPA [2], the Kd was determined as 0.32 nM.

B10: rec0266-0000-0010-VL_N90P (antibody, mouse IgG1, name in Kabat numbering, V domains shown)
VH: B1 VH
VL: B1 VL with N90P
Turning to B10, the dissociation constant Kd with recombinant human sc-uPA [2] is 0.62 nM.

B11: rec0266-0000-0010-VL_S91E (antibody, mouse IgG1, name in Kabat numbering, V domains shown)
VH: B1 VH
VL: B1 VL with S91E
In the case of B11, the dissociation constant (Kd) with recombinant human sc-uPA [2] came to 10 nM.

B12: rec0266-0000-0010-VL_S91L (antibody, mouse IgG1, name in Kabat numbering, V domains shown)
VH: B1 VH
VL: B1 VL with S91L
Consider B12, for which the Kd in the assay with recombinant human sc-uPA [2] was 5.7 nM.

B13: rec0266-0000-0010-VL_S91K (antibody, mouse IgG1, name in Kabat numbering, V domains shown)
VH: B1 VH
VL: B1 VL with S91K
With B13, the Kd in the assay with recombinant human sc-uPA [2] was determined as 3.2 nM.

B14: rec0266-0000-0010-VL_N90T (antibody, mouse IgG1, name in Kabat numbering, V domains shown)
VH: B1 VH
VL: B1 VL with N90T
With B14, the Kd with recombinant human sc-uPA [2] came to 0.48 nM.

B15: rec0266-0000-0010-VL_S91P (antibody, mouse IgG1, name in Kabat numbering, V domains shown)
VH: B1 VH
VL: B1 VL with S91P
Regarding B15, the equilibrium dissociation constant (Kd) in the assay with recombinant human sc-uPA [2] came to 2 nM.

B16: rec0266-0000-0010-VL_S91V (antibody, mouse IgG1, name in Kabat numbering, V domains shown)
VH: B1 VH
VL: B1 VL with S91V
For B16, in the assay with recombinant human sc-uPA [2], the Kd stood at 12 nM.

B17: rec0266-0000-0010-VL_N90K (antibody, mouse IgG1, name in Kabat numbering, V domains shown)
VH: B1 VH
VL: B1 VL with N90K
As to B17, the Kd with recombinant human sc-uPA [2] was determined as 1.1 nM.

B18: rec0266-0000-0010-VL_N90Y (antibody, mouse IgG1, name in Kabat numbering, V domains shown)
VH: B1 VH
VL: B1 VL with N90Y
For the molecule B18, the Kd in the assay with recombinant human sc-uPA [2] is 0.8 nM.

B19: rec0266-0000-0010-VL_S91I (antibody, mouse IgG1, name in Kabat numbering, V domains shown)
VH: B1 VH
VL: B1 VL with S91I
Take B19: the Kd with recombinant human sc-uPA [2] worked out at 2.9 nM.

B20: rec0266-0000-0010-VL_S91H (antibody, mouse IgG1, name in Kabat numbering, V domains shown)
VH: B1 VH
VL: B1 VL with S91H
Take B20: the Kd in the assay with recombinant human sc-uPA [2] came out at 5.3 nM.

B21: rec0266-0000-0010-VL_N90L (antibody, mouse IgG1, name in Kabat numbering, V domains shown)
VH: B1 VH
VL: B1 VL with N90L
Take B21: the Kd with recombinant human sc-uPA [2] was determined as 0.61 nM.

B22: rec0266-0000-0010-VL_N90I (antibody, mouse IgG1, name in Kabat numbering, V domains shown)
VH: B1 VH
VL: B1 VL with N90I
Consider B22, for which, in the assay with recombinant human sc-uPA [2], the dissociation constant (Kd) came out at 0.62 nM.

B23: rec0266-0000-0010-VL_S91T (antibody, mouse IgG1, name in Kabat numbering, V domains shown)
VH: B1 VH
VL: B1 VL with S91T
Turning to B23, the Kd with recombinant human sc-uPA [2] turned out to be 0.88 nM.

B24: rec0266-0000-0010-VL_S91Q (antibody, mouse IgG1, name in Kabat numbering, V domains shown)
VH: B1 VH
VL: B1 VL with S91Q
With B24, the Kd with recombinant human sc-uPA [2] amounted to 2.2 nM.

B25: rec0266-0000-0010-VL_N90H (antibody, mouse IgG1, name in Kabat numbering, V domains shown)
VH: B1 VH
VL: B1 VL with N90H
In the case of B25, in the assay with recombinant human sc-uPA [2], the Kd worked out at 0.4 nM.

B26: rec0266-0000-0010-VL_S91A (antibody, mouse IgG1, name in Kabat numbering, V domains shown)
VH: B1 VH
VL: B1 VL with S91A
Consider B26, for which the Kd with recombinant human sc-uPA [2] was determined as 1.3 nM.
